± gives the uncertainty stated by the source.
Assay: amyloid nucleation score (Sup35N fusion, yeast selection) (log enrichment); library NNK1; higher = more nucleation; inactive = no reads after selection
Procedure, shortened: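 Sup35N fusions to peptides of 20 random codons were expressed in psi-negative yeast, induced 24 hours with 100 μM copper sulfate, and grown 7 days at 30°C on medium lacking adenine and uracil. Input and output plasmid inserts were sequenced by Illumina. The nucleation score is the DiMSum log enrichment of output over input reads, centred on the mode score of non-aggregating sequences. Sequences with under 100 input reads were excluded.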

Row | Substance | amyloid nucleation score
1 | VITWEWFRFRRRFGKMEGCL | 1.24 ± 0.28
2 | TYLIKMSVT | 0.313 ± 0.39
3 | NYITCC | 1.37 ± 0.1
4 | DFNHYDRSSW | 2.45 ± 0.18
5 | KLREFAVLTLESGSFSVYCW | -1.14 ± 1.2
6 | ISGAN | -0.06 ± 0.44
7 | FFIICSYR | -0.868 ± 0.37
8 | DFDNEGLWCS | -0.217 ± 0.42
9 | RGMGVAWAYLSSNTRPRRLN | 0.792 ± 0.76
10 | RARCAVGS | -0.396 ± 1.5
11 | AASTNSGR | 0.305 ± 0.68
12 | RVMFACF | 0.15 ± 0.37
13 | EISVWVEALFSLYFRNWISG | 0.229 ± 0.84
14 | CTRFKGFAWTSMLRL | 0.21 ± 0.75
15 | HRFSCG | inactive
16 | VEQSFTAAPFQDVLF | -0.38 ± 0.32
17 | SKYGAYGRMVSSNLDT | -0.204 ± 0.84
18 | GVGNTRQRVFRVVHCLAMLQ | 0.634 ± 0.88
19 | SIGFLYCPLMSCASNFKWSK | 4.55 ± 0.068
20 | DFYADIASVMSVPILCSLLG | inactive
21 | WVSSAAGAAGPVIYWDVALY | -0.612 ± 0.39
22 | VNSTEGP | -0.989 ± 2.7

Row | Substance | amyloid nucleation score
23 | GHVRFSMHRRSDVCKQGSND | 0.91 ± 0.47
24 | MISLHVL | -0.109 ± 1.3
25 | IIWMSRRSSSLNEKGLKFNY | -0.548 ± 0.29
26 | RPFRLYECCCDGELFLN | -0.997 ± 0.51
27 | MYKAEICLMSLENRPLMLPF | 0.203 ± 0.44
28 | DDKSFQ | 0.614 ± 0.37
29 | LVRWSLLRFFL | 1.89 ± 0.59
30 | FRVSSFWYWYVHLQGYYGTV | 1.01 ± 0.8
31 | FRRFIFFVGYGHFIFWASWL | -0.156 ± 0.68
32 | DVVFGFLGVGKLIGVDTMRR | -0.725 ± 0.9
33 | RKLKSCSTNGHIG | 6.02 ± 0.063
34 | AQLGDDYVRCHSTILSTRRL | 0.167 ± 0.62
35 | MLLPSYVEF | 1.46 ± 0.34
36 | LWRNKTHISVLQRGQVYHQT | 0.182 ± 0.57
37 | GYKGQCIIYSTVDSRN | 0.07 ± 0.35
38 | SYMLVRDTLVLRCSACLLAG | inactive
39 | VAVRTPMSVCSVLLGSGSGL | -0.162 ± 1.1
40 | GIIRKVLAEANLNCKVSSYR | -0.488 ± 0.61
41 | VCVGNAETYMERNYV | 0.531 ± 0.4
42 | TIKMDTQVLVYIRKRNKYCW | -0.746 ± 0.79
43 | CQIFELLSNVRVTLLIYNSG | 1.41 ± 0.19
44 | VGSCCNQ | 7.591 ± 0.046

Row | Substance | amyloid nucleation score
45 | IRVGGIWRGCCGVDLCYLTI | -0.627 ± 0.61
46 | IFTFSIVTSNATGYLW | 2.29 ± 0.12
47 | IIVTSKQSTTYTHLVWERSG | -0.629 ± 0.69
48 | VAEAFTIGWGGNESSSVRSS | -0.348 ± 0.52
49 | MSVEIVTIGGGF | -0.481 ± 1.4
50 | KNFFPFAFVFL | 7.083 ± 0.053
51 | LFRGDGFRKLLFWNSSTFET | 2.67 ± 0.12
52 | NWVLHIRDCRAKALPLITDW | -0.034 ± 0.45
53 | IMAGHFRL | 3.69 ± 0.082
54 | MWWAHDGFRSCLRHISHADG | 0.349 ± 0.91
55 | PFQYADGTFF | 4 ± 0.15
56 | LEKQMNASQFAPPRLLLRKL | 0.498 ± 0.87
57 | PLLERHVAGLCGFFF | -0.908 ± 1.2
58 | FNKVYMSSIVASKVVKMRLI | -0.476 ± 0.75
59 | SSFKWLAASWLQGALHTMRG | -0.348 ± 0.79
60 | CVKERELIFFWYVVRSEYDL | -0.485 ± 0.47
61 | KEDAIIWVYNKSVSMRIFVQ | -0.104 ± 0.46
62 | HPIGSDSPHSVFMVSCVSLQ | 1.68 ± 0.28
63 | IGCGGVPKNQCWGPERFLEW | -0.132 ± 0.57
64 | RNLRY | 0.184 ± 1.1
65 | HMADTRVADCSQLLR | 0.409 ± 0.81
66 | TEIIFYLVYGWLTFRILGYN | -0.705 ± 0.43

Row | Substance | amyloid nucleation score
67 | LCLGLHSNLSLSMLRLLVLE | -0.482 ± 1.4
68 | VKPLKHPSGYYAMRRFVYNI | -0.566 ± 1.2
69 | CHYLVLD | -0.186 ± 0.74
70 | HFMWAYRCSDYDLM | 2.01 ± 0.11
71 | IIEFML | inactive
72 | LNVGV | -0.215 ± 1.7
73 | FLFYRCLGVKFFVFFMIVSK | -0.817 ± 2.4
74 | VGKELLLSLRYSNWVCLDWF | -0.715 ± 1.4
75 | SGMRRFRWLEVFSTDQRLEA | inactive
76 | SASSMVFNTTSPT | -0.404 ± 0.51
77 | MFLNII | -0.112 ± 0.74
78 | YYSFGRFKYTILL | -0.242 ± 0.6
79 | ASHFELYRLRKGLMCSVVSI | inactive
80 | QWGTREYGIFLDIFVHVTVN | 0.237 ± 0.56
81 | NSLCYVVWVVVMTVNYYHHW | 0.557 ± 0.5
82 | TRLVVLRSW | 1.14 ± 0.98
83 | NTISMFDMLQISKTSQHQFA | 0.387 ± 0.45
84 | FGIWIRGFRTYDECHPAHGC | 0.434 ± 0.41
85 | LKRMFFSNVLFFGSMIAGNR | 0.162 ± 0.59
86 | IRGTTRAFLANQGCDVLYTG | -0.865 ± 0.86
87 | RPGMEADLLVNLPLF | 0.958 ± 0.72
88 | FWGFVGTVMLLKCVFHGVSA | 0.628 ± 0.63

Row | Substance | amyloid nucleation score
89 | LVVFLNC | -0.607 ± 0.39
90 | GYRCMHLWTRSPSFIRPVVS | 0.67 ± 0.97
91 | IFRFSNFR | 5.822 ± 0.054
92 | KFRRW | -0.832 ± 0.56
93 | PSQRNKIPGMLSLYY | -0.193 ± 0.57
94 | VVVRLRFRNSIPSILSQR | -0.304 ± 0.71
95 | SVIVLFTIRRSWRPHSFRES | 0.94 ± 0.32
96 | ITLKF | -0.381 ± 0.43
97 | QYWVCNKPTLVDYRDTCDRT | 0.023 ± 0.89
98 | LRYAG | -0.87 ± 0.53
99 | TQKHCY | 0.326 ± 0.33
100 | VTRYTLVYFPLSLIRSTPAN | 0.62 ± 0.36
101 | VGITDSNRVLILSGQIHGVM | 0.6 ± 0.46
102 | VAFWLLC | 0.219 ± 0.38
103 | TLAGRCINDCILEGDMSRCF | 2.18 ± 0.57
104 | YQVYWSVSG | -0.021 ± 0.51
105 | RGNLESFVLGNIRVTNP | 1.01 ± 0.18
106 | MPKAQDALTLKNGELKRLSG | 0.295 ± 0.4
107 | HHRVCSMKWSNCYELNVMGE | -0.429 ± 0.28
108 | HDFRFIGSWHLTYGPSVTTT | -0.471 ± 0.49
109 | IRCLGISRIFLVYRSVPFWI | 0.413 ± 0.57
110 | MDLGRMSSGFMRSNMNKKVR | 0.519 ± 0.4

Row | Substance | amyloid nucleation score
111 | HYLISSCWIIRSGWADGTGR | 1.01 ± 0.15
112 | QMRAFSDLFLLSDY | 0.406 ± 0.46
113 | AWFSISTRRIAIAWVILPCN | -0.398 ± 0.4
114 | EVNLHLGCVWLVRLCVSDDG | 2.08 ± 0.19
115 | ISKISPFECGPVVAQ | 1.12 ± 0.73
116 | IIKDDLRMCWDGKRYWNSLI | 0.713 ± 0.32
117 | IITMIP | -0.514 ± 0.65
118 | SYGMSYSVVWNWCECNSA | 5.23 ± 0.053
119 | TAGRVITSCWQVLILLVNCG | -0.605 ± 0.54
120 | KLHDGFL | -0.96 ± 2.7
121 | VTWGSSPMQKFSMVQIKS | 0.564 ± 0.48
122 | SVVMHSWLLLIVTSGSFMYV | 0.218 ± 0.53
123 | VRGSVLCHRSLHETKNFL | 0.279 ± 0.38
124 | ALKWSTLLTLFLGYSHIVSM | 1.46 ± 0.38
125 | SGIVLTG | -1.06 ± 2.1
126 | GYEVKMHYSVLIINNSCPCL | 0.95 ± 0.25
127 | IIVIIVLLDLDVSWVDYEVM | -0.157 ± 0.78
128 | YLVAVVIGSIPAPSRMYSVA | 0.904 ± 0.51
129 | LGSILV | -0.751 ± 0.94
130 | IIREFSEGWVISKLDQD | -0.446 ± 0.3
131 | KCMTIAWIQSSVSAILLLNC | -0.181 ± 1.4
